In paper PMC11389940, “The chemokine receptor CCR8 is not a high-affinity receptor for the human chemokine CCL18” (PLOS ONE, 2024):
Values belong to the binder of their own block, whether it stands above or below them.

What was measured:
[1] = molecular target: CCR8 tagged at the N-terminus with a C-myc epitope tag and at the C-terminus with Renilla luciferase variant 8 (human, UniProt P51685 1-355); experiment: cell-based or functional assay
[2] = molecular target: human CCR8 expressed on transfected cells (human, UniProt P51685 1-355); experiment: cell-based or functional assay
[3] = molecular target: T1, human CCR3 expressed on 4DE4 cells (human) (UniProt P51677)
T1 sequence: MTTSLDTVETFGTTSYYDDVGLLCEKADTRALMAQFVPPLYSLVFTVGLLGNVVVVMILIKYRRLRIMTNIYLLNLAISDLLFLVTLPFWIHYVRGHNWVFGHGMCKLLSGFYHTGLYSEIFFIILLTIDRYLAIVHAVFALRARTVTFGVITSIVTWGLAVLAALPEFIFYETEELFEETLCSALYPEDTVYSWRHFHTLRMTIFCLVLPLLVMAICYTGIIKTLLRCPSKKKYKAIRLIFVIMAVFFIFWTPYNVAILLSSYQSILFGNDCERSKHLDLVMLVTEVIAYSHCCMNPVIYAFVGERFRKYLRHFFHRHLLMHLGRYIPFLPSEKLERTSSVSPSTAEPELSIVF

[4] = molecular target: T2, mouse CCR8 expressed on FlpInCHO cells (mouse) (UniProt P56484)
T2 sequence: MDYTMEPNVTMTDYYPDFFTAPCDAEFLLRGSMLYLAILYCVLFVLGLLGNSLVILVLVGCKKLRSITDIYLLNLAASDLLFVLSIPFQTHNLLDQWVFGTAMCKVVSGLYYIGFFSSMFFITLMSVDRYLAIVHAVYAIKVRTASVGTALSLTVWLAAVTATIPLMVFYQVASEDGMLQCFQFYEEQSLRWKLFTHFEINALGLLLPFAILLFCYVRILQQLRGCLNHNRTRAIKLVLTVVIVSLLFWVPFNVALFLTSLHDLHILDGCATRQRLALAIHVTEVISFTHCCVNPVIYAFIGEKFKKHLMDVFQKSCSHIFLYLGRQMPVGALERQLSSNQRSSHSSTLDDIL

[5] = molecular target: T3, mCCR8 tagged at the N-terminus with a C-myc epitope tag and at the C-terminus with Renilla luciferase variant 8 (mouse) (UniProt P56484)
T3 sequence: T2 sequence

human CCR8 expressed on transfected cells, sequence (P51685 whole entry): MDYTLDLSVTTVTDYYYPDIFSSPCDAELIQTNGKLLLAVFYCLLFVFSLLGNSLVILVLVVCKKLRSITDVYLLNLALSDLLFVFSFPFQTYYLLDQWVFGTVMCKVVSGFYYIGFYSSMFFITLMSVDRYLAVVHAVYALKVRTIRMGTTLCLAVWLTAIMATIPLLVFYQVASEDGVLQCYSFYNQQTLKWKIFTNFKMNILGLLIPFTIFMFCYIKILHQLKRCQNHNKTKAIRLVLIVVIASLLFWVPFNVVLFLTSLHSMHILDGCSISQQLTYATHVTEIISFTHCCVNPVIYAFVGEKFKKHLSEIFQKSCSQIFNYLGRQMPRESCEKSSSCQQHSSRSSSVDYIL
CCR8 tagged at the N-terminus with a C-myc epitope tag and at the C-terminus with Renilla luciferase variant 8, sequence (P51685 whole entry, change not shown): as the sequence (P51685 whole entry) above

β-arrestin2 recruitment to CCR8 (BRET) in FlpIn CHO cells; EC50 of CCL1 [1]: 21 nM
G protein activation (Gαi2; BRET of Gβγ with a GRK fragment) in FlpIn CHO cells stably expressing CCR8; EC50 [2]: 46 nM
inhibition of forskolin-stimulated cAMP synthesis (CAMYEL biosensor) in FlpIn CHO cells stably expressing CCR8; EC50 [2]: 26 nM
B1: CCL1 (ligand, human, UniProt P22362 24-96, looked up)
chain: KSMQVPFSRCCFSFAEQEIPLRAILCYRNTSSICSNEGLIFKLKRGKEACALDTVGWVQRHRKMLRHCPSKRK

inhibition by CCL18 of chemotaxis of 4DE4-CCR3 cells to 1 nM CCL11 (blocks CCL11 with CCR3); 50% inhibitory concentration [3]: < 50 nM
B2: CCL18(1–69) (ligand)
chain: AQVGTNKELCCLVYTSWQIPQKFIVDYSETSPQCPKPGVILLTKRGRQICADPNKKWVQKYISDLKLNA

G protein activation in FlpIn CHO cells stably expressing mCCR8; EC50 [4]: 11 nM
cAMP inhibition in FlpIn CHO cells stably expressing mCCR8; EC50 [4]: 30 nM
β-arrestin2 recruitment to mCCR8 (BRET) in FlpIn CHO cells; EC50 of mCCL1 [5]: 24 nM
B3: murine CCL1 (ligand)
chain: KSMLTVSNSCCLNTLKKELPLKFIQCYRKMGSSCPDPPAVVFRLNKGRESCASTNKTWVQNHLKKVNPC
